According to patent publication US20090054250, “Methods to create fluorescent biosensors using aptamers with fluorescent base analogs” (published 2009):

Assays:
alpha-thrombin [1] = molecular target: T1, alpha-thrombin (Homo sapiens, UniProt P00734;P00734 P00734:328-363,P00734:364-622); experiment: 6MAP fluorescence at saturating protein
[2] = molecular target: PDGF-BB (platelet-derived growth factor B homodimer) (UniProt P01127 P01127:82-190); experiment: saturating protein; conditions: chain copies: 2 stated, three-helix junction
Chain of PDGF-BB (platelet-derived growth factor B homodimer) (P01127 82-190, one chain of several): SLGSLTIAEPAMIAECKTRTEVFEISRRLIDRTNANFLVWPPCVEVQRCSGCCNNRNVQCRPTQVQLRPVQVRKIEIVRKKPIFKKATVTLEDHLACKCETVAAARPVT

alpha-thrombin [3] = molecular target: T1, alpha-thrombin; experiment: 3MI fluorescence at saturating protein
alpha-thrombin [4] = molecular target: T1, alpha-thrombin; experiment: 3MI signal, 350 nm excitation; AlexaFluor 430 FRET signal up 2.9-fold
alpha-thrombin [5] = molecular target: T1, alpha-thrombin; experiment: 3MI signal of streptavidin-aptamer complex; AlexaFluor 430 up 1.9-fold

B1: thrombin aptamer 6MAP-7 (ssDNA)
DNA: GGTTGGTGTGGTTGG
modifications: n at position 7 is 4-amino-6-methyl-pteridone (6MAP) replacing T [7 (6MAP replacing T)]
binding signal (alpha-thrombin [1]): 32.9 fold fluorescence increase

CACAGGCTACGGCACGTAGAGCATCACCATGATCCTGTG (ssDNA, n at position 22 is 6MAP replacing C [22 (6MAP replacing C)]) [PDGF-B aptamer 6MAP-22]
binding signal ([2]; label: 6MAP): 6.7 fold fluorescence increase

B2: PDGF-B aptamer 3MI-22 (ssDNA)
DNA: CACAGGCTACGGCACGTAGAGCATCACCATGATCCTGTG
modifications: n at position 22 is 3-methylisoxanthopterin replacing C [22 (3-methylisoxanthopterin replacing C)]
binding signal ([2]; label: 3MI): 2.5 fold fluorescence increase

B3: thrombin aptamer 3MI-7 (ssDNA)
DNA: GGTTGGTGTGGTTGG
modifications: n at position 7 is 3-methylisoxanthopterin replacing T [7 (3-methylisoxanthopterin replacing T)]
binding signal (alpha-thrombin [3]): 9.7 fold fluorescence increase

B4: thrombin aptamer 3MI-7 AlexaFluor 430 (ssDNA)
DNA: GGTTGGTGTGGTTGG
modifications: n at position 7 is 3-methylisoxanthopterin; 5' 21-atom amino linker [7 (3-methylisoxanthopterin replacing T); 5' 21-atom amino linker with AlexaFluor 430 left out]
binding signal (alpha-thrombin [4]): ~7.5 fold fluorescence increase

B5: thrombin aptamer 3MI-7 biotin (ssDNA)
DNA: GGTTGGTGTGGTTGG
modifications: n at position 7 is 3-methylisoxanthopterin; 5' 40-atom linker [7 (3-methylisoxanthopterin replacing T); 5' 40-atom linker with biotin left out]
binding signal (alpha-thrombin [5]): ~7.1 fold fluorescence increase
